Measured values reported in publication PMC4176334.

Target: M. tuberculosis RNAP core;SigB;RbpA (Mycobacterium …, UniProt P9WGZ1;P9WGY9;P9WGY7;P9WGY5;P9WGI5;P9WHJ5 1-347;1-1178;1-1316;1-110;1-323;1-111, ||)
Assay: EMSA

B1: galP1AA (dsDNA)
DNA 1: GTTTATTCCATGTCACACTTTTCGCATCTTTTCGTTGCTATAATTATTTCATACCAAAAGCCTAATGGAGCG
DNA 2: CGCTCCATTAGGCTTTTGGTATGAAATAATTATAGCAACGAAAAGATGCGAAAAGTGTGACATGGAATAAAC
binding result: binds
